The results in this text go back to article PMC5827136.

The target of this assay is Histone H4 (UniProt P62805). Put plainly: SPR.

In general, pKd refers to the negative decadic logarithm of the Kd, by convention in mol/L. A higher pKd goes with a low Kd. As usually defined, the koff is the first-order rate constant of dissociation. A lower koff goes with a long-lived complex. As a reminder, the kon is the second-order rate constant of association. Low values mean slow association, high ones fast association.

pKd: −log10 of the molar value.

Regarding “protein SIC (Streptococcal Inhibitor of Complement) (natural protein)”, the pKd is 7.75, the koff was determined as 0.000591 s⁻¹ and the on-rate constant (kon) was found to be 33500 M⁻¹ s⁻¹.
